Experimental data from paper PMC5316958, “A combination of mutational and computational scanning guides the design of an artificial ligand-binding controlled lipase” (Scientific Reports, 2017).
Values joined by “and” are separate entries in the source; they are usually repeats but may differ in a detail not shown here. Identical values can stand only once.

Key:
[1] = biological target: T1, Bacillus subtilis lipase A (BsLA) (Bacillus subtilis, UniProt P37957); experiment: hydrolysis of p-NPB by purified enzyme, p-nitrophenolate release at […] nm (specific activity); type: biochemical
T1 construct: gene estA; purified wild-type BsLA

SAXS = biological target: the molecule itself; experiment: SAXS
[2] = biological target: the molecule itself; experiment: AUC; sedimentation velocity, CitAP-BsLA 0.5 mg/ml, 10 mM glycine buffer pH 10, 10 mM NaCl, with or without 1 mM sodium citrate, 25 °C, 40 krpm; c(s) with Bayesian prior, discrete species of known mass; monomer, dimer and higher oligomers

Row | Molecule | hydrolysis of p-NPB by purified enzyme, p-nitrophenolate release at 410 nm (spec) [1] | Kd (SAXS) | stoichiometry N [2]
1 | CCCC(=O)Oc1ccc([N+](=O)[O-])cc1 [p-nitrophenylbutyrate] | 181 ± 3 U/mg | – | –
2 | CitAP-BsLA (enzyme) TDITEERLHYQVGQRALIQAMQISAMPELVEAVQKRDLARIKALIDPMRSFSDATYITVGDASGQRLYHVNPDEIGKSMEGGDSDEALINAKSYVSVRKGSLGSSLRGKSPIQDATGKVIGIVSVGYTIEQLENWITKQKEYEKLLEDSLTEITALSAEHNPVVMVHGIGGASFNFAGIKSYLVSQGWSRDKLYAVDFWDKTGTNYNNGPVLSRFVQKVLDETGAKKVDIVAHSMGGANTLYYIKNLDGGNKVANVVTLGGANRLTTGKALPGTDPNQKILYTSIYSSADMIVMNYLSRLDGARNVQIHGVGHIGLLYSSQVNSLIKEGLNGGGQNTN | – | 24 µM and 29 µM | 2
